Source: the RNAGym collection of RNA variant scans (doi:10.7554/elife.80360)

B1: HDV Ribozyme (parent)
chain: GGCCGGCAUGGUCCCAGCCUCCUCGCUGGCGCCGGCUGGGCAACAUUCCGAGGGGACCGUCCCCUCGGUAAUGGCGAAUGGGACCCA

Variants of: B1
Experiment: self-cleavage, relative activity (ratio to wild type); higher = more cleavage; co-transcriptional
With GGCCGGCAUGGUCCCAGCCUCCUCGCUGGCGCCACCUGGGCAACAUUCCGAGGGGACCGUCCCCUCGGUAAUGGCGAAUGGGACCCA [G34A G35C] the self-cleavage was 0.0378.
With GGCCGGCAUGGUCCCAGCCUCCUCGCUGGCGCCAACUGGGCAACAUUCCGAGGGGACCGUCCCCUCGGUAAUGGCGAAUGGGACCCA [G34A G35A] the self-cleavage was 0.145.
GGCCGGCAUGGUCCCAGCCUCCUCGCUGGCGCCAGCUGGGCAACAUUCCGAGGGGACCGUCCCCUCGGGAAUGGCGAAUGGGACCCA [G34A U69G] gave a self-cleavage of 0.306.
GGCCGGCAUGGUCCCAGCCUCCUCGCUGGCGCCAGCUGGGCAACAUUCCGAGGGGACCGUCCCCUCGGAAAUGGCGAAUGGGACCCA [G34A U69A] gave a self-cleavage of 0.166.
In the case of GGCCGGCAUGGUCCCAGCCUCCUCGCUGGCGCCAGCUGGGCAACAUUCCGAGGUGACCGUCCCCUCGGUAAUGGCGAAUGGGACCCA [G34A G54U], the self-cleavage is reported as 0.17.
For GGCCGGCAUGGUCCCAGCCUCCUCGCUGGCGCCAGCUGGGCAACAUUCCGAGGCGACCGUCCCCUCGGUAAUGGCGAAUGGGACCCA [G34A G54C], the self-cleavage was 0.151.
GGCCGGCAUGGUCCCAGCCUCCUCGCUGGCGCCCGCUGGGCAUCAUUCCGAGGGGACCGUCCCCUCGGUAAUGGCGAAUGGGACCCA [G34C A43U] showed a self-cleavage of 0.
With GGCCGGCAUGGUCCCAGCCUCCUCGCUGGCGCCCGCUGGGCACCAUUCCGAGGGGACCGUCCCCUCGGUAAUGGCGAAUGGGACCCA [G34C A43C] the self-cleavage was 0.364.
In the case of GGCCGGCAUGGUCCCAGCCUCCUCGCUGGCGCCAGCUGGGCAACAUUCCGAGGGGACCGUCCCUUCGGUAAUGGCGAAUGGGACCCA [G34A C64U], the self-cleavage is reported as 0.133.
Work on GGCCGGCAUGGUCCCAGCCUCCUCGCUGGCGCCAGCUGGGCAACAUUCCGAGGGGACCGUCCCAUCGGUAAUGGCGAAUGGGACCCA [G34A C64A] yielded a self-cleavage of 0.128.
In the case of GGCCGGCAUGGUCCCAGCCUCCUCGCUGGCGCCAGCUGGGCAACAUUCCGAGGGGACCGUCCCGUCGGUAAUGGCGAAUGGGACCCA [G34A C64G], the self-cleavage is reported as 0.0963.
Variant GGCCGGCAUGGUCCCAGCCUCCUCGCUGGCGCCCGCUGGGCAACGUUCCGAGGGGACCGUCCCCUCGGUAAUGGCGAAUGGGACCCA [G34C A45G] has a self-cleavage of 0.147.
In the case of GGCCGGCAUGGUCCCAGCCUCCUCGCUGGCGCCAGCUGGGCAACAUUCCGAGGGGAGCGUCCCCUCGGUAAUGGCGAAUGGGACCCA [G34A C57G], the self-cleavage is reported as 0.0997.
GGCCGGCAUGGUCCCAGCCUCCUCGCUGGCGCCAGCUGGGCAACAUUCCGAGCGGACCGUCCCCUCGGUAAUGGCGAAUGGGACCCA [G34A G53C] showed a self-cleavage of 0.215.
In the case of GGCCGGCAUGGUCCCAGCCUCCUCGCUGGCGCCAGCUGGGCAACAUUCCGAGUGGACCGUCCCCUCGGUAAUGGCGAAUGGGACCCA [G34A G53U], the self-cleavage is reported as 0.17.
For GGCCGGCAUGGUCCCAGCCUCCUCGCUGGCGCCAGCUGGGCAACAUUCCGAGGGGACCGUCCUCUCGGUAAUGGCGAAUGGGACCCA [G34A C63U], the self-cleavage was 0.0656.
GGCCGGCAUGGUCCCAGCCUCCUCGCUGGCGCCAGCUGGGCAACAUUCCGAGGGGACCGUCCCCUCGGUAAUCGCGAAUGGGACCCA [G34A G73C] showed a self-cleavage of 0.147.
For GGCCGGCAUGGUCCCAGCCUCCUCGCUGGCGCCAGCUGGACAACAUUCCGAGGGGACCGUCCCCUCGGUAAUGGCGAAUGGGACCCA [G34A G40A], the self-cleavage was 0.181.
Work on GGCCGGCAUGGUCCCAGCCUCCUCGCUGGCGCCAGCUGGCCAACAUUCCGAGGGGACCGUCCCCUCGGUAAUGGCGAAUGGGACCCA [G34A G40C] yielded a self-cleavage of 0.0482.
Variant GGCCGGCAUGGUCCCAGCCUCCUCGCUGGCGCCAGCUGGGCAACAUUCCGAGGGGACCGUCCCCUCCGUAAUGGCGAAUGGGACCCA [G34A G67C] has a self-cleavage of 0.0707.
Variant GGCCGGCAUGGUCCCAGCCUCCUCGCUGGCGCCAGCUGGGCAACAUUCCGAGGGGACCGUCCCCUCUGUAAUGGCGAAUGGGACCCA [G34A G67U] has a self-cleavage of 0.0811.
Work on GGCCGGCAUGGUCCCAGCCUCCUCGCUGGCGCCAGCUGGGCAACAUUCCGAGGGGACCGUCCCCUCAGUAAUGGCGAAUGGGACCCA [G34A G67A] yielded a self-cleavage of 0.104.
Variant GGCCGGCAUGGUCCCAGCCUCCUCGCUGGCGCCCGCUGGGCAACAUUCCGAGGGGUCCGUCCCCUCGGUAAUGGCGAAUGGGACCCA [G34C A56U] has a self-cleavage of 0.277.
Variant GGCCGGCAUGGUCCCAGCCUCCUCGCUGGCGCCAGCUGGGCAACAUUCCGAGGGGACCGUCCCCUCGGUAAUGGCGAAUGGGACCGA [G34A C86G] has a self-cleavage of 0.121.
With GGCCGGCAUGGUCCCAGCCUCCUCGCUGGCGCCAGCUGGGCAACAUUCCGAGGGGACCGUCCCCUCGGUAAUGGCGAAUGGGACCUA [G34A C86U] the self-cleavage was 0.176.
In the case of GGCCGGCAUGGUCCCAGCCUCCUCGCUGGCGCCAGCUGGGCAACAUUCCGAGGGGACCGUCCCCUCGGUAAUGGCGAAUGGCACCCA [G34A G82C], the self-cleavage is reported as 0.261.
GGCCGGCAUGGUCCCAGCCUCCUCGCUGGCGCCAGCUGGGCAACAUUCCGAAGGGACCGUCCCCUCGGUAAUGGCGAAUGGGACCCA [G34A G52A] showed a self-cleavage of 0.286.
Variant GGCCGGCAUGGUCCCAGCCUCCUCGCUGGCGCCAGCUGGGCAACAUUCCGAUGGGACCGUCCCCUCGGUAAUGGCGAAUGGGACCCA [G34A G52U] has a self-cleavage of 0.143.
GGCCGGCAUGGUCCCAGCCUCCUCGCUGGCGCCAGCUGGGCAACAUUCCGACGGGACCGUCCCCUCGGUAAUGGCGAAUGGGACCCA [G34A G52C] gave a self-cleavage of 0.0545.
Variant GGCCGGCAUGGUCCCAGCCUCCUCGCUGGCGCCAGCUGGGCAACAUUCCGAGGGGACCGUCCCCUCGGUAAUGGCGAAUGGGAUCCA [G34A C84U] has a self-cleavage of 0.142.
For GGCCGGCAUGGUCCCAGCCUCCUCGCUGGCGCCAGCUGGGCAACAUUCCGAGGGGACCGUCCCCUCGGUAAUGGCGAAUGGGAGCCA [G34A C84G], the self-cleavage was 0.104.
In the case of GGCCGGCAUGGUCCCAGCCUCCUCGCUGGCGCCAGCUGGGCAACAUUCCGAGGGGACCGGCCCCUCGGUAAUGGCGAAUGGGACCCA [G34A U60G], the self-cleavage is reported as 0.237.
